Measured values: the nanobody polyreactivity screen of Harvey et al. (2022)

test: yeast display, Sf9 membrane polyspecificity reagent, FACS + sequencing; frameworks hold sequencing errors
Summary of the method: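 A synthetic nanobody library was expressed on Saccharomyces cerevisiae BJ5465 by galactose induction for 36–48 hours. The library was stained for 1 hour at 4 °C with 10% biotinylated, detergent-solubilized Sf9 membrane reagent and enriched with streptavidin microbeads before FACS. Low and high (top ~1%) gates were set on anti-HA fluorescence for expression and streptavidin fluorescence for reagent binding, and each polyreactivity label reflects the gate of origin.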

For “QVQLVESGGGLVQAGGSLRLTCAASGSTFTRYAMGWYRQAPGKERELVATIIFSGDRTYYADSVKGRFTISRDNAKNTVYLEMNSLKPEDTAVSYCNKYRYQWPYRRFDYWGQGTQVTVSS”, which “polyreactivity (PSR sort gate)” value is on record?
Its value is “high polyreactivity”.

Which “polyreactivity (PSR sort gate)” value does the source give for “QVQLVESGGGLVQAGGSLRLSCAASGSTFDANTMGWYRQAPGKERELVAAISSNGGRTYYADSVKGRFTISRDNAKNTVYLLMNSLKPEDTAVYYCAASSYYRYRETYDYWGLGTQVTVSS” here?
The value was “high polyreactivity”.

Which “polyreactivity (PSR sort gate)” value does the source give for “QVQLVESGGGLVQAGGSLRLSCAASGSTFKVYTMGWYRPAPGKERELVAAISGGGGSTYYADSVKGRFTISRDNAKNTVYLQMNSLNPEDTAVYYCAAQKRGPGYPYYYWGQGTQVTVSS” here?
Its value is “high polyreactivity”.

Which “polyreactivity (PSR sort gate)” value does the source give for “QVQLVESGGGLVQAGGSLRLSCAASGSIFRYYAMGWYRQAPGKERELVASINSGGSTYYADSVKGRFTISRDNAKNTVYLLMNSLKPEDTAVYYCAAETSYYYRGYWKSYDYWGQGTQVTVSS” here?
Its value is “high polyreactivity”.

With “QVQLVESGGGLVQAGCSLRLSCAASGRIFRRYAMGWYRQAPGKERELVAAITSGGGSTYYADSVKGRFTISRDNAKNTVYLQMNSLKPEDTAVYYCNKSSWEFVKGKYGYWGQGTQVTVSS” as the sequence, how does the “polyreactivity (PSR sort gate)” value read?
Its value is “low polyreactivity”.

Which “polyreactivity (PSR sort gate)” value does the source give for “QVQLVESGGGIDQAGGSLRLSCAASGNIFDYYAMGWYRQAPGKEREFVAAISWSGARTYYADSVKGRFTISRDNAKNTVYLQMNRLKPEDTAVYYCAGGQSWRKNDYRYDYWGQGTQVTVSS” here?
The value was “high polyreactivity”.

For “QVQLVESGGGLVQAGGSLRLSCAASGSIFFLYARGWYRQAPGKERELVAAISRSGGNTYYADSVKGRFTISRDNAKNSVYLQMNSLKPEDTAVYYCAADGVHRGGRGGYWGQGTQVTVSS”, which “polyreactivity (PSR sort gate)” value is on record?
The value was “high polyreactivity”.

For “QVQLVESGGGLVQAGGSLRLSCAASGRIFGKYMGWYRQAPGKERELVAAISRNGGRTYYADSVKGRFTISRDNAKNTVYLQMNCLNPEDTAVYYCAAASSRYDYWGQGTQVTVSS”, which “polyreactivity (PSR sort gate)” value is on record?
The value was “high polyreactivity”.

With “QVQLVESGGGLVQAGGSLRLSCAASGRIFYDYTMVWYRQAPGKERDLVATITSGGNTNYADSVKGRFTISRDNAKNTVYLPMNSLKPVDTAVYYCAPSYSAKRVKTGRVWYGYWGQGTQVTVSS” as the sequence, how does the “polyreactivity (PSR sort gate)” value read?
The value was “low polyreactivity”.

Which “polyreactivity (PSR sort gate)” value does the source give for “QVQLVESGGGLVQAGGSLRLSCAASGRIFYYYPMGWYRQAPGKEMELVARITGLTGRTYYADSVKGRFTISRDNSKNTVYLHMHSLKPQDTAVYYCAATDRWSRLGYWGQGTQVTVSS” here?
Its value is “high polyreactivity”.

For “QVQLVESGGGLVQAGGSLRLSCAASGFIFSVNTMGWYRQAPGKERELVAAISGSGGSTYYADSVKGRFTISRDNAKITVYFQMNSLKPDDTAVYYCAARYTVTYDYWGQCTQVTVSS”, which “polyreactivity (PSR sort gate)” value is on record?
The value was “high polyreactivity”.

With “QDQLVESGGGLVQAGASLRLSCADSGFTFTTNAMGWYRHAPGKERELVAAISFSGGTTYYADSVKGRFTISRDNAKNTVYLQMNRLKPEDTAVYYCAAQPGQAWWSTDHDDYWGQGTQVTVSS” as the sequence, how does the “polyreactivity (PSR sort gate)” value read?
Its value is “low polyreactivity”.

With “QVQLVESVGGLVQAGGSLRLSCAASGFTFTWYDMGWYRQAPGKERELVAAITTDGGSTYYADSVKGRFTISRDNATNTVYLQMNSLKPEDTEVYYCAAAGYLPFPVEYEYWGQGTQVTVSS” as the sequence, how does the “polyreactivity (PSR sort gate)” value read?
The value was “high polyreactivity”.

For “QVQLVESVGGLVQAGGSLRLSCAASGSTFYSYSMGWYRQEPGKERELVAAISWNGGSTYYADSVKGRFTISRDNAKNTVYFQMNSLKPEVTAVYYCAARGGYPYWRYYRFYKMDYWGQGTQVTVSS”, which “polyreactivity (PSR sort gate)” value is on record?
The value was “low polyreactivity”.

With “QVQLVESGGGLVQAGGSLRLSCAASGRTFFYNARGWYRQEPGKERELVAAIDWSGDSTYYADSVKGRFTISRDNAKNTVYLQMNSLKPEDTAVYYCAARRKNRRDYDYYYWGQGTQVTVSS” as the sequence, how does the “polyreactivity (PSR sort gate)” value read?
The value was “high polyreactivity”.

With “QVQLVESVGGLVQAGGSLRLSCAPSGRIFGKYAMGWYRQAPGKERELVADITWGGGSTNYADSVKGRFTISRDNAKNTVYLQMNSLNPDDTAVYYCATGFYYYLTKTIPYEYEYWGQGTQVTVSS” as the sequence, how does the “polyreactivity (PSR sort gate)” value read?
Its value is “low polyreactivity”.

Which “polyreactivity (PSR sort gate)” value does the source give for “QVQLVESGGGLVQAGGSLRLSCAASGFIFWQYAMGWYRQAPGKERELVAAITSRGGSTYYADSVKGRFTISRDNAKNTVYLKMNSLKPEDTAVYYCARLYPRHLNGDYWGQGTQVTVSS” here?
The value was “high polyreactivity”.
